According to patent publication US20170183403A1 (UNIVERSIT T Z RICH, published 2017):

Columns and labels:
[1] = target: T1, Reference peptide no. 10; assay: peptide microarray (RepliTope), Ala mutagenesis set
T1 construct: hIL-2 15-mer, first library, on microarray; also called peptide 10
T1 peptide: INNYKNPKLTRMLTF

[2] = target: T2, Reference peptide no. 44; assay: as above
T2 construct: second library: peptide 12 with F(62) to Ala; also called peptide 44
T2 peptide: PKLTRMLTAKFYMPK

[3] = target: T3, Reference peptide no. 49; assay: as above
T3 construct: second library: peptide 13 with Y(65) to Ala; also called peptide 49
T3 peptide: TRMLTFKFAMPKKAT

[4] = target: T4, Reference peptide no. 52; assay: as above
T4 construct: second library: peptide 11 with F(62) and Y(65) to Ala; also called peptide 52
T4 peptide: YKNPKLTRMLTAKFA

[5] = target: T5, human interleukin-2 (human, UniProt P60568 21-153); assay: SPR, antibody amine-coupled on GLM chip, hIL-2 in solution
T5 construct: also called hIL-2; human IL-2
T5 sequence (P60568 21-153 limits assumed): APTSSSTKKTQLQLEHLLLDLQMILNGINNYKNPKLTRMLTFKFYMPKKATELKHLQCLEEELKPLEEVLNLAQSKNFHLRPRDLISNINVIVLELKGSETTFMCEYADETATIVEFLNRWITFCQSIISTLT
Protocol: For this experiment an amine coupling GLM chip was used. The activation of the carboxylic acid groups in the chip was done using a mix of 1-ethyl-3-3-dimethylaminopropyl carbodiimide hydrochlorid (EDC at 0.2 M) and sulfo N-hydroxysulfosuccinimids (s_NHS at 0.05M) at […] for 420 seconds (s). […] Deactivation was followed adding ethanolamine HCl at […] for 300 s. Finally human IL-2 was added at different concentrations (starting from 100 nM and followed by three-fold dilutions) at […], 600 s association, and 240 s dissociation.
In order to characterize the binding properties of the anti-human IL-2 mAbs the binding to human interleukin-2 was tested with surface plasmon resonance binding assays.

B1: NARA1 (antibody, mouse IgG2a, kappa, V domains shown)
VH: QVQLQQSGAELVRPGTSVKVSCKASGYAFTNYLIEWVKQRPGQGLEWIGVINPGSGGTNYNEKFKGKATLTADKSSSTAYMQLSSLTSDDSAVYFCARWRGDGYYAYFDVWGAGTTVTVSS
VL: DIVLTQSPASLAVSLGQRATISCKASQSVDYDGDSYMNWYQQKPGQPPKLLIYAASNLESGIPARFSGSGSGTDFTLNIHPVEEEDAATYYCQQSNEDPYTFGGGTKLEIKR
notes: Mouse monoclonal from hybridoma; Isotype controls used were mouse IgG2a; also called anti-IL2 (NARA1) antibody; monoclonal antibody NARA1
signal intensity after subtraction of control signal [1]: 20900 AU | signal intensity after subtraction of control signal [2]: 432 AU | signal intensity after subtraction of control signal [3]: 1490 AU | signal intensity after subtraction of control signal [4]: 238 AU | Kd [5]: 1.2 nM | koff [5]: 2.08e-05 s⁻¹
